Data on two molecules can be found in US20230296621A1 (CHAN ZUCKERBERG BIOHUB, published 2023).

The test deals with SARS-CoV-2 Spike receptor binding domain (SpikeRBD, aa 328-533) (SARS-CoV-2, UniProt P0DTC2 328-533). Kind of test: BLI on immobilised biotinylated Spike-RBD.

B1: C004 IgG (antibody, V domains shown)
VH: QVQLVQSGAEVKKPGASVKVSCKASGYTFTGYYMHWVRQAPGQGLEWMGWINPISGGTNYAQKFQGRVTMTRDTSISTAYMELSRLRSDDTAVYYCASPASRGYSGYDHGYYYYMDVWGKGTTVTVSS
VL: AIRMTQSPSSLSASVGDRVTITCQASQDISNYLNWYQQKPGKAPKLLIYDASNLETGVPSRFSGSGSGTDFTFTISSLQPEDIATYYCQQYDNLPITFGQGTRLEIKR
notes: also called recombinant anti-S-RBD antibody C004
Turning to B1, the binding result is listed as “binds”.

B2: C105 IgG (antibody, V domains shown)
VH: QVQLVESGGGLIQPGGSLRLSCAASGFTVSSNYMSWVRQAPGKGLEWVSVIYSGGSTYYADSVKGRFTISRDNSKNTLYLQMNSLRAEDTAVYYCARGEGWELPYDYWGQGTLVTVSS
VL: QSALTQPPSASGSPGQSVTISCTGTSSDVGGYKYVSWYQQHPGKAPKLMIYEVSKRPSGVPDRFSGSKSGNTASLTVSGLQAEDEADYYCSSYEGSNNFVVFGGGTKLTVLG
B2: the binding result is “binds”.
